Laboratory results: patent US20170037111A1, “Novel peptides and combination of peptides for use in immunotherapy against ovarian cancer and other cancers” (immatics biotechnologies GmbH, priority 2015, published 2017)

What follows are substances tested against HLA-A*02:01 (Homo sapiens, UniProt P04439, D140Y/D185E/D98H/E176V/E277Q/G131W/G231S/I119V/I121R/I166T/I218V/L300P/L318F/N151K/N90K/P208A/P217A/Q86G/Q94H/R138H/R169H/T345S) (assay: MHC binding assay (UV-ligand exchange, β2m ELISA, peptide exchange yield)). Settings: MHC class I binding score; binding to HLA-A*02:01 ranged by peptide exchange yield (UV-ligand exchange, β2m ELISA).
In short: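 Peptide–HLA-A*02:01 complexes were formed by UV-mediated exchange of a UV-cleavable ligand for the test peptide. Exchange yield was measured by capturing complexes on streptavidin, detecting with HRP anti-β2m antibody (1 h, 37°C) and reading TMB absorbance at 450 nm.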

Peptide exchange | Substance
″+++″ (≧50% = +++) | 452 (ILLEHGADPNL; listed as Homo sapiens) [compound 452]
″++″ (≧20% = ++) | 197 (ALGPEGGRV; listed as Homo sapiens) [compound 197]
″+++″ (≧50% = +++) | 488 (FLAEDPKVTL; listed as Homo sapiens) [compound 488]
″+++″ (≧50% = +++) | 14 (AAYGGLNEKSFV; listed as Homo sapiens) [compound 14]
″+++″ (≧50% = +++) | 240 (ILLEQAFYL; listed as Homo sapiens) [compound 240]
″+++″ (≧50% = +++) | 450 (FMIDASVHPTL; listed as Homo sapiens) [compound 450]
″++″ (≧20% = ++) | 44 (ILDPISSGFLL; listed as Homo sapiens) [compound 44]
″+++″ (≧50% = +++) | 300 (ALLGQTFSL; listed as Homo sapiens) [compound 300]
″+++″ (≧50% = +++) | 262 (LLWGDLIWL; listed as Homo sapiens) [compound 262]
″++″ (≧20% = ++) | 432 (TLIEESAKV; listed as Homo sapiens) [compound 432]
″++″ (≧20% = ++) | 228 (AMQEYIAVV; listed as Homo sapiens) [compound 228]
″+++″ (≧50% = +++) | 378 (ALGYFVPYV; listed as Homo sapiens) [compound 378]
″+++″ (≧50% = +++) | 357 (SMHDLVLQV; listed as Homo sapiens) [compound 357]
″++++″ (≧75% = ++++) | 196 (YLYSVEIKL; listed as Homo sapiens) [compound 196]
″+++″ (≧50% = +++) | 457 (SLLPGNLVEKV; listed as Homo sapiens) [compound 457]
″+++″ (≧50% = +++) | 623 (YLVEDIQHI; listed as Homo sapiens) [compound 623]
″++″ (≧20% = ++) | 180 (FQIDPHSGLVTV; listed as Homo sapiens) [compound 180]
″++″ (≧20% = ++) | 277 (LLPPLESLATV; listed as Homo sapiens) [compound 277]
″+++″ (≧50% = +++) | 474 (YLDPALELGPRNV; listed as Homo sapiens) [compound 474]
″++″ (≧20% = ++) | 124 (ALYETELADA; listed as Homo sapiens) [compound 124]
″+++″ (≧50% = +++) | 160 (FLFDEEIEQI; listed as Homo sapiens) [compound 160]
″+++″ (≧50% = +++) | 111 (YVWGFYPAEV; listed as Homo sapiens) [compound 111]
″+++″ (≧50% = +++) | 98 (LIIDQADIYL; listed as Homo sapiens) [compound 98]
″+++″ (≧50% = +++) | 586 (KLKPGDLVGV; listed as Homo sapiens) [compound 586]
″+++″ (≧50% = +++) | 129 (GLLDGGVDILL; listed as Homo sapiens) [compound 129]
″++″ (≧20% = ++) | 9 (GAAKDLPGV; listed as Homo sapiens) [compound 9]

Peptide exchange | Substance
″++″ (≧20% = ++) | 212 (ALWDQDNLSV; listed as Homo sapiens) [compound 212]
″+++″ (≧50% = +++) | 364 (LLQNEQFEL; listed as Homo sapiens) [compound 364]
″++++″ (≧75% = ++++) | 347 (SLFKHDPAAWEA; listed as Homo sapiens) [compound 347]
″+++″ (≧50% = +++) | 554 (LLMPSSEDLLL; listed as Homo sapiens) [compound 554]
″+++″ (≧50% = +++) | 475 (LLLNEEALAQI; listed as Homo sapiens) [compound 475]
″++″ (≧20% = ++) | 615 (VLPPDTDPA; listed as Homo sapiens) [compound 615]
″+++″ (≧50% = +++) | 531 (YTLPIASSIRL; listed as Homo sapiens) [compound 531]
″+++″ (≧50% = +++) | 485 (NVPDSFNEV; listed as Homo sapiens) [compound 485]
″++++″ (≧75% = ++++) | 466 (VLIANLEKL; listed as Homo sapiens) [compound 466]
″+++″ (≧50% = +++) | 397 (YLFGERLLEC; listed as Homo sapiens) [compound 397]
″+++″ (≧50% = +++) | 484 (SLIEKVTQL; listed as Homo sapiens) [compound 484]
″+++″ (≧50% = +++) | 75 (GLLEVMVNL; listed as Homo sapiens) [compound 75]
″++″ (≧20% = ++) | 217 (ALIHPVSTV; listed as Homo sapiens) [compound 217]
″++++″ (≧75% = ++++) | 289 (VLLEIEDLQV; listed as Homo sapiens) [compound 289]
″+++″ (≧50% = +++) | 170 (RLQETLSAA; listed as Homo sapiens) [compound 170]
″+++″ (≧50% = +++) | 66 (FLDENIGGVAV; listed as Homo sapiens) [compound 66]
″+++″ (≧50% = +++) | 342 (HIYDKVMTV; listed as Homo sapiens) [compound 342]
″+++″ (≧50% = +++) | 179 (KVLNELYTV; listed as Homo sapiens) [compound 179]
″+++″ (≧50% = +++) | 16 (VLFQGQASL; listed as Homo sapiens) [compound 16]
″+++″ (≧50% = +++) | 493 (GLLGEKTQDLIGV; listed as Homo sapiens) [compound 493]
″+++″ (≧50% = +++) | 195 (GLFADLLPRL; listed as Homo sapiens) [compound 195]
″++″ (≧20% = ++) | 505 (SLAPGDVVRQV; listed as Homo sapiens) [compound 505]
″+++″ (≧50% = +++) | 555 (YVLEGLKSV; listed as Homo sapiens) [compound 555]
″+++″ (≧50% = +++) | 252 (LLIGTDVSL; listed as Homo sapiens) [compound 252]
″+++″ (≧50% = +++) | 608 (SLLSVSHAL; listed as Homo sapiens) [compound 608]
″++″ (≧20% = ++) | 265 (LLFGGTKTV; listed as Homo sapiens) [compound 265]

Peptide exchange | Substance
″+++″ (≧50% = +++) | 498 (KLWTGGLDNTV; listed as Homo sapiens) [compound 498]
″++″ (≧20% = ++) | 121 (GVVDPRAISVL; listed as Homo sapiens) [compound 121]
″++++″ (≧75% = ++++) | 91 (IMQDFPAEIFL; listed as Homo sapiens) [compound 91]
″+++″ (≧50% = +++) | 214 (FLLDLDPLLL; listed as Homo sapiens) [compound 214]
″+++″ (≧50% = +++) | 506 (KLLGKVETA; listed as Homo sapiens) [compound 506]
″+++″ (≧50% = +++) | 437 (SMAPGLVIQAV; listed as Homo sapiens) [compound 437]
″+++″ (≧50% = +++) | 298 (VMITKLVEV; listed as Homo sapiens) [compound 298]
″++″ (≧20% = ++) | 431 (SLVNVVPKL; listed as Homo sapiens) [compound 431]
″+++″ (≧50% = +++) | 560 (ALWDIETGQQTTT; listed as Homo sapiens) [compound 560]
″+++″ (≧50% = +++) | 521 (MLLTKLPTI; listed as Homo sapiens) [compound 521]
″+++″ (≧50% = +++) | 34 (ILVEADSLWVV; listed as Homo sapiens) [compound 34]
″+++″ (≧50% = +++) | 42 (VLLQKIVSA; listed as Homo sapiens) [compound 42]
″++++″ (≧75% = ++++) | 576 (ILLNNSGQIKL; listed as Homo sapiens) [compound 576]
″+++″ (≧50% = +++) | 407 (YLMDLINFL; listed as Homo sapiens) [compound 407]
″+++″ (≧50% = +++) | 583 (ILANDGVLLAA; listed as Homo sapiens) [compound 583]
″++″ (≧20% = ++) | 354 (LILEGVDTV; listed as Homo sapiens) [compound 354]
″+″ (≧10% = +) | 230 (ILVDWLVEV; listed as Homo sapiens) [compound 230]
″++″ (≧20% = ++) | 15 (VLLTFKIFL; listed as Homo sapiens) [compound 15]
″++″ (≧20% = ++) | 440 (ALADGVTMQV; listed as Homo sapiens) [compound 440]
″+++″ (≧50% = +++) | 90 (TLLQIIETV; listed as Homo sapiens) [compound 90]
″++++″ (≧75% = ++++) | 438 (KLLPLAGLYL; listed as Homo sapiens) [compound 438]
″+++″ (≧50% = +++) | 366 (RLLDMGETDLML; listed as Homo sapiens) [compound 366]
″+++″ (≧50% = +++) | 561 (YLQLTQSEL; listed as Homo sapiens) [compound 561]
″+++″ (≧50% = +++) | 78 (SLFSSLEPQIQPV; listed as Homo sapiens) [compound 78]
″+++″ (≧50% = +++) | 344 (YLQDQHLLLTV; listed as Homo sapiens) [compound 344]
